Measured values from article PMC10683472, “Deep Learning-Driven Library Design for the De Novo Discovery of Bioactive Thiopeptides” (ACS Central Science, 2023).

Biological target: T1, TLR10 (Homo sapiens, UniProt Q9BXR5)
T1 sequence (Q9BXR5 20-576): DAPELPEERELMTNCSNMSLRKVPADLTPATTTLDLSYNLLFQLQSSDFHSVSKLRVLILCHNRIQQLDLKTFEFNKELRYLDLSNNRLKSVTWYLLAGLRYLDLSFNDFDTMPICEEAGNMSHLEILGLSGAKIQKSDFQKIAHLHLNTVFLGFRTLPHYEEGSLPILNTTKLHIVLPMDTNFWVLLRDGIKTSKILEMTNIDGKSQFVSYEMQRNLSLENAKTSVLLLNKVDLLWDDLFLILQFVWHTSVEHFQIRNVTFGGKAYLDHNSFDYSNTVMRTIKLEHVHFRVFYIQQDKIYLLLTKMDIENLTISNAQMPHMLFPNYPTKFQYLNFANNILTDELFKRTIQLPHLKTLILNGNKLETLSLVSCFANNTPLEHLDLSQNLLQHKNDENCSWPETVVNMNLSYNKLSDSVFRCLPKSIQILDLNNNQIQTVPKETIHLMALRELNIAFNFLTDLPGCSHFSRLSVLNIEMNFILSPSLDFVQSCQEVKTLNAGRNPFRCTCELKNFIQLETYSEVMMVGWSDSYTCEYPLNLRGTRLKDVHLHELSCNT
Experiment: mRNA display affinity selection against TLR10, NGS abundance
Format: binding
Set-up: Chimera protein (extracellular domain, amino acid 20-576;); Fc (chimera); purchased R&D system #6619-TR-050
Conditions: Top100 selection hits, NGS

Row | Sequence | Library fraction (TLR10 selection pulldown (+)) | Raw reads (TLR10 selection pulldown (+)) | Library fraction (TLR10 selection pulldown (-)) | Raw reads (TLR10 selection pulldown (-))
1 | GLVINKRWYVHL | 0.00058 | 57 | 0.00054 | 64
2 | GTGLNRYGGINY | 0.023 | 2231 | 0.00739 | 882
3 | GVGNRYGGHAGT | – | – | 0.0009 | 107
4 | GVRLNGVIFVSV | 0.00024 | 23 | – | –
5 | GYAVGKLLIRV | 0.00026 | 25 | – | –
6 | ICFVYVRSS | 0.00028 | 27 | – | –
7 | IGKTYVASS | – | – | 0.00089 | 106
8 | IGKTYVKSC | 0.00027 | 26 | – | –
9 | IGKVYVHSS | – | – | 0.00092 | 110
10 | IGLVRIKSS | 0.0012 | 117 | 0.00155 | 185
11 | IGLVRVVSS | – | – | 0.00658 | 785
12 | IGNTYVASS | 0.00022 | 21 | – | –
13 | IGNVCIRSS | – | – | 0.0008 | 96
14 | IGNVCVVSS | 0.007 | 660 | 0.004 | 475
15 | IGRLFVKSS | – | – | 0.00284 | 339
16 | IGRLYIKSS | 0.003 | 304 | 0.00136 | 162
17 | IGRVCIRSS | – | – | 0.00147 | 175
18 | IGRVMIKSS | 0.008 | 778 | 0.007 | 870
19 | IGRVWVQSS | – | – | 0.002 | 250
20 | IGSVFIKSS | 0.00365 | 356 | 0.003 | 375

Row | Sequence | Library fraction (TLR10 selection pulldown (+)) | Raw reads (TLR10 selection pulldown (+)) | Library fraction (TLR10 selection pulldown (-)) | Raw reads (TLR10 selection pulldown (-))
21 | LGNVYIRSS | 0.00075 | 73 | – | –
22 | MIRMDRLRVL | 0.00023 | 22 | – | –
23 | MMSRGMRWVL | 0.00019 | 19 | – | –
24 | MNPYSGNIVV | 0.00022 | 21 | – | –
25 | RIETARLVIL | 0.00074 | 72 | 0.00141 | 168
26 | RIETRCYVLH | – | – | 0.0006 | 72
27 | RILFARQNLAAF | – | – | 0.00283 | 338
28 | RILFPLQNSIAF | 0.00041 | 40 | – | –
29 | RMMFHLLNQIAY | – | – | 0.00358 | 427
30 | RMSLNTRYIAF | 0.00031 | 30 | – | –
31 | RNPYSGNIAI | 0.00557 | 543 | 0.00067 | 80
32 | RSPIPSWG | – | – | 0.00043 | 51
33 | SFMFFSQRKLAF | 0.00034 | 33 | – | –
34 | SFTFALQRRIAY | – | – | 0.0006 | 71
35 | SHYFAFQKKLAF | – | – | 0.00125 | 149
36 | SICFASQRLLAF | – | – | 0.00149 | 178
37 | SICFPLQHKCAY | – | – | 0.00144 | 172
38 | SIEFRRMRAIAY | – | – | 0.00067 | 80
39 | SIEGMHVVIV | 0.00022 | 21 | – | –
